Test system: 151AmF-GFP (azide-exposed GFP, protein part of RGG/DGG) (synthetic (codon-optimized GFP, expressed in E. coli NiCo21(DE3)))
Assay: EMSA (SDS-PAGE gel shift)
Settings: clicked to AmF-GFP, 59 pmol GFP + 59 pmol guide, SPAAC at 4 C for 1.5 h, then equal volume of target, 20 min at room temperature, 15% SDS-PAGE, protein stored in 50 mM HEPES …

| Sequence | binding signal (DGG (covalent DNA guide), DBCO on guide DNA) | binding signal (RGG (covalent RNA guide), DBCO on guide RNA) |
| --- | --- | --- |
| TAACCCTAACCCTAACCCTAACCCTA / GCUAGAUCCGUAGGGUUAGGGUUAGGGUUAGGGUUAACCUCCGACC [Tel26-DBCO-DNA guide + Target RNA [Tel26]] | 86 % bound | – |
| UAACCCUAACCCUAACCCUAACCCUA / GCUAGAUCCGUAGGGUUAGGGUUAGGGUUAGGGUUAACCUCCGACC [Tel26-DBCO-RNA guide + Target RNA [Tel26]] | – | 88 % bound |
